This is an account of results in patent US20240376221A1.

The target in experiment [1] is human FcγRIa, cell surface-expressed (human) (UniProt P12314). In words: flow cytometry, ExpiCHO-S cells transfected with human FcγRIa.
The target of experiment [2] is His-tagged human recombinant FcγRIa (human) (UniProt P12314). In words: SPR, His-tagged FcγRIa captured on an anti-His chip, antibody injected. In general terms: In SPR one partner is held on a chip, and binding of the other changes the refractive index at the surface.
In experiment [3] the target is recombinant human OX40 (Acro Biosystems, cat. no. OXO-H5224) (human) (UniProt P43489). In words: BLI, Ab on AHC sensor, OX40 analyte. In general terms: Biolayer interferometry detects binding as a change in optical thickness at a sensor tip.
Experiment [4] concerns the target human OX40, cell surface-expressed (human) (UniProt P43489). In words: flow cytometry, activated CD4+ T cells, donor 1.
For experiment [5] the target is unchanged. In words: flow cytometry, activated CD4+ T cells, donor 2. In general terms: Flow cytometry measures light scatter and fluorescence of single cells or particles in a stream.
Experiment [6] has the same target. In words: flow cytometry, activated CD4+ T cells, donor 3.
Experiment [7] shares this target. In words: flow cytometry, activated CD8+ T cells, donor 1.
The target is the same in experiment [8]. In words: flow cytometry, activated CD8+ T cells, donor 2.
Experiment [9] shares this target. In words: flow cytometry, activated CD8+ T cells, donor 3.
Experiment [10] shares this target. In words: flow cytometry, HEK293F cells with human OX40.
For experiment [11] the target is unchanged. In words: flow cytometry, activated CD4+ T cells, mean of 3 donors.
Experiment [12] shares this target. In words: flow cytometry, activated CD8+ T cells, mean of 3 donors.
Experiment [13] has as its target recombinant human OX40 (Acro Biosystems, cat. no. OXO-H5224) (human) (UniProt P43489). In words: BLI cross-block; competitor (immobilized 1st Ab): IgG1-CD134-003.
Experiment [14] shares this target. In words: BLI cross-block; competitor (immobilized 1st Ab): IgG1-CD134-007.
Experiment [15] shares this target. In words: BLI cross-block; competitor (immobilized 1st Ab): IgG1-CD134-012.
The target is the same in experiment [16]. In words: BLI cross-block; competitor (immobilized 1st Ab): IgG1-CD134-SF2.
The target is the same in experiment [17]. In words: BLI cross-block; competitor (immobilized 1st Ab): IgG1-CD134-11D4.
Experiment [18] has the same target. In words: BLI cross-block; competitor (immobilized 1st Ab): IgG1-CD134-h3C8.
The target is the same in experiment [19]. In words: BLI cross-block; competitor (immobilized 1st Ab): IgG1-CD134-A4453.
Experiment [20] has the same target. In words: BLI cross-block; competitor (immobilized 1st Ab): IgG1-CD134-Hu106.
Experiment [21] addresses cynomolgus monkey OX40, cell surface-expressed (cynomolgus monkey). In words: flow cytometry, HEK293F cells with cynomolgus monkey OX40.
For experiment [22], the target named is recombinant human OX40 (Acro Biosystems, cat. no. OXO-H5224) (human) (UniProt P43489). In words: BLI cross-block; competitor (immobilized 1st Ab): IgG1-CD134-GBR830.
Experiment [23] has the same target. In words: BLI cross-block; competitor (immobilized 1st Ab): IgG1-CD134-IBI101.
For experiment [24] the target is unchanged. In words: BLI cross-block; competitor (immobilized 1st Ab): IgG1-CD134-RG7888.
Experiment [25] has the same target. In words: BLI cross-block; competitor (immobilized 1st Ab): IgG1-CD134-ABBV368.
Experiment [26] has the same target. In words: BLI cross-block; competitor (immobilized 1st Ab): IgG1-CD134-49B4-RRE.
The target is the same in experiment [27]. In words: BLI cross-block; competitor (immobilized 1st Ab): IgG1-CD134-MEDI0562.
Experiment [28] shares this target. In words: BLI cross-block; competitor (immobilized 1st Ab): IgG1-CD134-INCAGN1949.
Experiment [29] has as its target recombinant cynomolgus monkey OX40 (Acro Biosystems, cat. no. OXO-C5220) (cynomolgus monkey). In words: BLI, Ab on AHC sensor, OX40 analyte; * binding observed, less reliable fit.
For experiment [30], the target named is recombinant human OX40 (Acro Biosystems, cat. no. OXO-H5224) (human) (UniProt P43489). In words: BLI cross-block; competitor (immobilized 1st Ab): IgG1-CD134-003-HC6LC2-RR.
In experiment [31] the target is human OX40 with mouse CRD1 (human with mouse CRD1) (UniProt P43489). In words: flow cytometry, ExpiCHO-S cells with human OX40 carrying mouse CRD1.
For experiment [32], the target named is human OX40 with mouse CRD3 (human with mouse CRD3) (UniProt P43489). In words: flow cytometry, ExpiCHO-S cells with human OX40 carrying mouse CRD3.
For experiment [33], the target named is human OX40, cell surface-expressed (human) (UniProt P43489). In words: flow cytometry, ExpiCHO-S cells with human OX40.
The target in experiment [34] is human OX40 with mouse CRD4 (human with mouse CRD4) (UniProt P43489). In words: flow cytometry, ExpiCHO-S cells with human OX40 carrying mouse CRD4.
Sequence of human OX40 with mouse CRD4 (human with mouse CRD4) (P43489 other isoform, or with tags, fused parts or gaps limits assumed): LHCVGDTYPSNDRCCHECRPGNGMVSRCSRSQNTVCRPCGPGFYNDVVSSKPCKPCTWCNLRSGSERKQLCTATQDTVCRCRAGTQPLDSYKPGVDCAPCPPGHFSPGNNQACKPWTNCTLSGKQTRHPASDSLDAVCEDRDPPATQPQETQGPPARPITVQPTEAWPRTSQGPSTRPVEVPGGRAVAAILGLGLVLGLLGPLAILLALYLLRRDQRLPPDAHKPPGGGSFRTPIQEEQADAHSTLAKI

Sequence of recombinant cynomolgus monkey OX40 (Acro Biosystems, cat. no. OXO-C5220) (cynomolgus monkey) (P43489 other isoform, or with tags, fused parts or gaps limits assumed): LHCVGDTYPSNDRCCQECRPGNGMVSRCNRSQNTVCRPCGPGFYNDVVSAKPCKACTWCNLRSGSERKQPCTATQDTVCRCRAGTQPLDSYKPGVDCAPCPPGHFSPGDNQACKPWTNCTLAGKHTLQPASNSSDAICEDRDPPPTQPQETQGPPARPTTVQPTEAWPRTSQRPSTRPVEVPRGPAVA
Sequence of recombinant human OX40 (Acro Biosystems, cat. no. OXO-H5224) (human) (P43489 29-216 limits assumed): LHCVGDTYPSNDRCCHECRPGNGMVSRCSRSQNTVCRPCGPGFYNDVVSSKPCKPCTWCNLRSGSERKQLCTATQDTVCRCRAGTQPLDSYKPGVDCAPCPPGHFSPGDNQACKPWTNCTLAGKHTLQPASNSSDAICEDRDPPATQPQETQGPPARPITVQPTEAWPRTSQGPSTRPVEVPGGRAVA
Sequence of cynomolgus monkey OX40, cell surface-expressed (cynomolgus monkey) (P43489 other isoform, or with tags, fused parts or gaps limits assumed): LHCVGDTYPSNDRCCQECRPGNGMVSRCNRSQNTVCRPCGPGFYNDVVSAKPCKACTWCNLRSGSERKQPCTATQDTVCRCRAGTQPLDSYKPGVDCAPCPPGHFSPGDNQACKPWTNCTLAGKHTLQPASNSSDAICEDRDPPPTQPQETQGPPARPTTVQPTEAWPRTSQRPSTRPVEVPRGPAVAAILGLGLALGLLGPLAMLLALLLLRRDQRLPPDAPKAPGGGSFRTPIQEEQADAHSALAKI
Sequence of IgG1-CD134-IBI101 (antibody) (VH): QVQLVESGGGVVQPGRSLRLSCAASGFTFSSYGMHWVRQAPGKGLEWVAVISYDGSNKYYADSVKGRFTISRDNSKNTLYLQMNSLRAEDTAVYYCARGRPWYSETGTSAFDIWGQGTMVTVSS
Sequence of IgG1-CD134-IBI101 (antibody) (VL): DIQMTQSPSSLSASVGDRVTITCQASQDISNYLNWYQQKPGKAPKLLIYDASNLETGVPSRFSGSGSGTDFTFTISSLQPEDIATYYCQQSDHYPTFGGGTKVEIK
Sequence of human OX40 with mouse CRD1 (human with mouse CRD1) (P43489 other isoform, or with tags, fused parts or gaps limits assumed): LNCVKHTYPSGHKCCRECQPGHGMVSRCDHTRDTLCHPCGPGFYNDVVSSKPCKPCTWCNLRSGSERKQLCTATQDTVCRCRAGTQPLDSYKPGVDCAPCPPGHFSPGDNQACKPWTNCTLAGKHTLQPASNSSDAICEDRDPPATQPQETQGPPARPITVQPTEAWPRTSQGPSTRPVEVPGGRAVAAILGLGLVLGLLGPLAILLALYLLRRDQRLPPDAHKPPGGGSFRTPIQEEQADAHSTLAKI
Sequence of human OX40, cell surface-expressed (human) (P43489 29-277): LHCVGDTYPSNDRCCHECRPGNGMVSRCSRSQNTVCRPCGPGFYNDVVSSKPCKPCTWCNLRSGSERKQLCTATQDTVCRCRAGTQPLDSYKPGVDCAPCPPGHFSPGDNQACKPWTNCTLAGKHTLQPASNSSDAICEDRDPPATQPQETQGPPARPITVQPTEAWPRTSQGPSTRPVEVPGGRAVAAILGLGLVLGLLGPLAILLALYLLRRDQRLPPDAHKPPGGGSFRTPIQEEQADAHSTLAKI
Sequence of human OX40 with mouse CRD3 (human with mouse CRD3) (P43489 other isoform, or with tags, fused parts or gaps limits assumed): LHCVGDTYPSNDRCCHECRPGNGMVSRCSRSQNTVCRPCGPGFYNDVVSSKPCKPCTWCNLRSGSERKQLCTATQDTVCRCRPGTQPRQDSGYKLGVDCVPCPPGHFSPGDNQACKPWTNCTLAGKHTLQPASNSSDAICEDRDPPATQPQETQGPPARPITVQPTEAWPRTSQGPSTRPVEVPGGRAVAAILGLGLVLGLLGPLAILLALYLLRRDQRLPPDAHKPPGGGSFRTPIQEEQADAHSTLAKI
Sequence of His-tagged human recombinant FcγRIa (human) (P12314 16-288 limits assumed): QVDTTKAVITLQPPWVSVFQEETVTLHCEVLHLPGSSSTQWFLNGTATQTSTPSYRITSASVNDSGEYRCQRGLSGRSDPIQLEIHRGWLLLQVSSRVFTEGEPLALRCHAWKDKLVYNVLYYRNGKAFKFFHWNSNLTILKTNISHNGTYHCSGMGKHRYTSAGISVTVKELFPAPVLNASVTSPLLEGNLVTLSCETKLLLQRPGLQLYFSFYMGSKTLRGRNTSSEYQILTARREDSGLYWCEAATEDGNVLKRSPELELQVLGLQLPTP
Sequence of human FcγRIa, cell surface-expressed (human) (P12314 16-374): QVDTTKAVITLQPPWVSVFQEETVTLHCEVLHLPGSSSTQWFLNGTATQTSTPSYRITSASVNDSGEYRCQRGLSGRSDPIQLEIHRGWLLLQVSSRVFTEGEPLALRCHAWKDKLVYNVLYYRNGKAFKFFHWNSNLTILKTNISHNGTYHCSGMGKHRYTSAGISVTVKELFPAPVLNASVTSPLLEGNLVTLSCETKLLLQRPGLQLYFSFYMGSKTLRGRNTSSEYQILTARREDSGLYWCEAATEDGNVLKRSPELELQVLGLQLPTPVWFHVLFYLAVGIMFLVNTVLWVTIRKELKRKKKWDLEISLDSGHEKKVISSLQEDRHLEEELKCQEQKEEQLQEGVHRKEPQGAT

In general, EC50 (read off the curve) refers to the concentration giving half of the maximal effect. Regarding “IgG1-CD134-RG7888-K322A-E345R (antibody)”, the concentration for a half-maximal effect (EC50 (read off the curve)) in experiment [1] is 0.6 µg/mL; in experiment [2], 30 nM.
In general, Kd refers to the concentration at which binding is half-saturated. As a reminder, the EC50 is the midpoint of the concentration-response curve. Turning to IgG1-CD134-IBI101 (antibody), the dissociation constant (Kd) in [3] was determined as 53 nM; in [29], 400 nM. The EC50 amounted to 0.101 µg/mL in experiment [4]; 0.1 µg/mL in experiment [5]; 0.111 µg/mL in experiment [6]; 0.128 µg/mL in experiment [7]; 1.86 µg/mL in experiment [8]; 0.192 µg/mL in experiment [9]. The 50% effective concentration (EC50) in experiment [11] worked out at 0.104 µg/mL; in experiment [12], 0.727 µg/mL. Moreover, the EC50 (read off the curve) in experiment [10] worked out at 0.09 µg/mL; in experiment [21], 0.08 µg/mL; in [31], 0.08 µg/mL; in experiment [32] it was 0.06 µg/mL. Further, the corrected association response in experiment [13] is 0.74 nm; in [14] it was 0.02 nm; in experiment [15], 0.82 nm; in experiment [16] it was 0.07 nm; in experiment [17], 0.15 nm; in experiment [18] it was -0.03 nm. The corrected association response is 0.24 nm in experiment [19]; -0.02 nm in experiment [20]; 0.01 nm in experiment [22]; 0.01 nm in experiment [23]; 0.31 nm in experiment [24]; -0.02 nm in experiment [25]. For the same substance, the corrected association response stood at 0 nm in experiment [26], 0.26 nm in experiment [27], 0.02 nm in experiment [28] and 1.23 nm in experiment [30].
Turning to IgG1-CD134-INCAGN1949 (antibody), the Kd is 160 nM in [3] and 230 nM in [29]. For the same substance, the EC50 (read off the curve) in experiment [10] was 0.06 µg/mL; in experiment [33], 0.07 µg/mL; in [21] it was 0.1 µg/mL; in [31], 0.08 µg/mL; in [34], 0.08 µg/mL. Moreover, the corrected association response is 1.39 nm in experiment [13]; 0.55 nm in experiment [14]; 0.73 nm in experiment [15]; 0.02 nm in [16]; 0.11 nm in experiment [17]; -0.02 nm in [18]. For the same substance, the corrected association response in experiment [19] was 0.25 nm; in experiment [20], -0.01 nm; in experiment [22], 0.01 nm; in experiment [23] it was 0.01 nm; in experiment [24] it was 0.01 nm; in experiment [25], -0.03 nm. The corrected association response in [26] was 0 nm; in [27], 0.01 nm; in experiment [28], 0 nm; in [30] it was 1.74 nm.
By koff is commonly meant the first-order rate constant of dissociation. For orientation: kon means a measure of how fast the partners come together. For the substance IgG1-CD134-Hu106 (antibody), the dissociation constant (Kd) was determined as 9.3 nM in experiment [3] and 240 nM in [29]. For the same substance, the koff in experiment [3] is 0.0024 s⁻¹; in experiment [29], 0.029 s⁻¹. Besides, the kon amounted to 260000 M⁻¹ s⁻¹ in experiment [3] and 120000 M⁻¹ s⁻¹ in experiment [29]. Besides, the EC50 (read off the curve) in experiment [10] stood at 0.08 µg/mL; in experiment [33], 0.05 µg/mL; in experiment [21] it was 0.06 µg/mL; in experiment [31] it was 0.06 µg/mL; in experiment [32], 0.06 µg/mL; in experiment [34] it was 0.06 µg/mL. Further, the corrected association response in [13] was 1.06 nm; in experiment [14], 0.05 nm; in experiment [15] it was 0.8 nm; in experiment [16] it was 0.03 nm; in [17] it was 0.13 nm; in [18], 0.01 nm. Moreover, the corrected association response in [19] is 0.29 nm; in [20], 0.05 nm; in experiment [22] it was 0.01 nm; in [23] it was 0.01 nm; in experiment [24], 0.02 nm; in experiment [25] it was -0.01 nm. Moreover, the corrected association response in experiment [26] is -0.01 nm; in experiment [27] it was 0.31 nm; in experiment [28] it was 0 nm; in experiment [30], 1.39 nm.
